Substitutions are numbered along the chain they refer to. Numbers in names are those of the source.
Key:
[1] = system: human PBMCs (CD4 and CD8 T cells); assay: Restoration of CD25 and CD69 activation markers on NECA-suppressed CD4 and CD8 T cells; assay type: cell-based; conditions: test substance 2 μg/ml
Description: (§1) Two hundred thousand (2×10^5) human peripheral blood mononuclear cells (PBMCs) human PBMC in complete IMDM medium were aliquoted into each well in a 96-well plate and the cells in the 96-well plate were pre-incubated with antibodies or small molecule inhibitors at indicated concentration for 90 minutes, followed by addition of T cell activator anti-CD3/28 dynabeads (Gibco, Cat #11132D) at ratio of 1:4 (Beads: PBMC, v/v) and NECA (DiscoverX, Cat #92-1191, final concentration […]). Cells were cultured in an incubator at 37° C., 5% CO2 for 24 hours. Cells were then collected and stimulated with anti-CD3/28 dynabeads in the presence of GolgiPlug™ Protein Transport Inhibitor (BD Biosciences, Cat #555028) according to manufacturer's manual for 4 hours. Thereafter, cells were incubated with human TruStain FcX block (Biolegend, Cat #422302) and True-Stain monocyte blocker (Biolegend, Cat #426103) for 15 minutes according the manufacturer's manual, and cells were then stained with surface markers PE-anti-CD4 (Biolegend, Cat #300550), PerCP-cy5.5-anti-CD8 (Biolegend, Cat #301032), APC/cy7-anti-CD3 (Biolegend, Cat #300426) and PE/cy7-anti-CD56 (Biolegend, Cat #362509), PE/cy7-anti-CD56 (Biolegend, Cat #362509), BV711-anti-CD25 (Biolegend, Cat #302636) and BV605-anti-CD69 (Biolegend, Cat #31938 After wash with FACS buffer, cells were stained with BV421-anti-IFN-γ (BD Bioscience, Cat #562988) and APC anti-IL-2 (BD Bioscience, cat #551383) using intracellular cytokine staining kit (BD Biosciences, cat #555028) following manufacturer's instruction. Stained samples were analyzed on FACSAria III machine. Data were analyzed using Flowjo software.

[2] = system: human PBMCs (CD4 T, CD8 T, NK cells); assay: Restoration of IFN-γ and IL-2 production of NECA-suppressed T cells and NK cells (intracellular cytokine staining); assay type: cell-based; conditions: NECA; test substance 2 μg/ml
Description: as §1

[3] = target: T1, human A2aR-expressing CHO cells (Homo sapiens, UniProt P29274); assay: pH-sensitive dye (Zenon pHrodo iFL RED) based internalization assay; assay type: cell-based; conditions: 24 hours
T1 construct: expressed in transfected cells; host or cells: CHO
T1 sequence (P29274 whole entry): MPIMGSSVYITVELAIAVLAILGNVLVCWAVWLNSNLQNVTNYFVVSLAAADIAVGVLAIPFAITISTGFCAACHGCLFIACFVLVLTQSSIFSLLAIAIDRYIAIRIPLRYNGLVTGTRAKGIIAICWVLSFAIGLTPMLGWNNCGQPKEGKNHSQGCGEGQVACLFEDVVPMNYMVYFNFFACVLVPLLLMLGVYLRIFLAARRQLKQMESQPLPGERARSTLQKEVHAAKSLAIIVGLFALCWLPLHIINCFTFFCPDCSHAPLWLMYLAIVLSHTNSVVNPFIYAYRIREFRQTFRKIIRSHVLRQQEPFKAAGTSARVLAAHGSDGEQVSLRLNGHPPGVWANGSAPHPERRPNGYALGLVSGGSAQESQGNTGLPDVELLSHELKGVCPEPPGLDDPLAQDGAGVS
Source text: The Invitrogen™ Zenon™ pHrodo™ iFL RED human IgG Labeling Reagents (Cat. Z25612) Z25612) is low-pH sensitive dye and was used to determine the internalizing properties of the exemplary anti-A2aR antibodies following manufacture's instruction. The internalization of antibodies coupled with the Zenon™ pHrodo™ iFL RED human IgG Labeling reagents increase the fluorescence signal at low pH intracellular compartment in a cell, providing a method for visualizing internalization under fluorescent microscopy.
Twenty-five microliters (25 μL) of 4× working solution of Zenon™ pHrodo™ iFL IgG Labeling Reagent were also prepared in freestyle CHO expression medium and then added to each well of a 96-well plate containing antibodies. The solutions in the 96-well plate were mixed and incubated for 5 minutes at room temperature to allow the labeling complexes to form. Afterwards, fifty microliters (50 μl) of 2×10^6/ml human A2aR-expressing CHO cells were added to each well containing labeled antibodies. Cells were then incubated with the labeling complex for 24 hours under standard cell culture conditions. Cells were analyzed under immunofluorescent microscope (Invitrogen EVOS cell imaging system M5000) to visualize the internalization of antibodies by cells. Internalization of antibody was imaged using EVOS imaging systems (Invitrogen).

[4] = target: T2, human adenosine A2A receptor (A2aR) (human, UniProt P29274 1-412); assay: flow cytometry on PBMC, donor human 1, isotype control
T2 sequence (P29274 whole entry): as above

[5] = target: T2, human adenosine A2A receptor (A2aR); assay: flow cytometry on PBMC, donor human 2, isotype control
[6] = target: cynomolgus adenosine A2A receptor (A2aR) (cynomolgus); assay: flow cytometry on PBMC, donor Cynomolgus 2, isotype control
[7] = target: cynomolgus adenosine A2A receptor (A2aR) (cynomolgus); assay: flow cytometry on PBMC, donor Cynomolgus 1, isotype control
[8] = target: T2, human adenosine A2A receptor (A2aR); assay: flow cytometry titration, HEK293-hA2aR cells, purified antibody
[9] = target: T2, human adenosine A2A receptor (A2aR); assay: flow cytometry, HEK293-hA2aR cells, supernatant 1 ug/ml
[10] = target: T2, human adenosine A2A receptor (A2aR); assay: cell-based or functional assay
[11] = target: cynomolgus adenosine A2A receptor (A2aR) (cynomolgus); assay: flow cytometry on PBMC, donor Cynomolgus 2
[12] = target: cynomolgus adenosine A2A receptor (A2aR) (cynomolgus); assay: flow cytometry on PBMC, donor Cynomolgus 1
[13] = target: T2, human adenosine A2A receptor (A2aR); assay: cell-based or functional assay; remark: listed apart in the source

Cc1ccc(-c2nc(N)nc3c2nnn3Cc2cccc(CO[C@H]3CCOC3)n2)o1 [CPI-444]
% of cells CD25+, CD4 T cells [1]: 62.9%
% of cells CD25+, CD8 T cells [1]: 35.9%
% of cells CD69+, CD4 T cells [1]: 52.3%
% of cells CD69+, CD8 T cells [1]: 52.3%
% of cells IFNγ+, CD4 T cells [2]: 3.66%
% of cells IFNγ+, CD8 T cells [2]: 11.6%
% of cells IFNγ+, NK cells [2]: 15.1%
% of cells IL-2+, CD4 T cells [2]: 12.7%
% of cells IL-2+, CD8 T cells [2]: 3.05%
induction of internalization (pHrodo fluorescence microscopy, FIG. 3) [3]: did not induce internalization

Anti-HEL isotype control (BioIntron) (antibody)
% of A2aR+ CD4+ T cells [4]: 0.083%
% of A2aR+ CD8+ T cells [4]: 0.005%
% of A2aR+ NK cells [4]: 0.21%
% of A2aR+ NKT cells [4]: 0.11%
% of A2aR+ CD4+ T cells [5]: 0.012%
% of A2aR+ CD8+ T cells [5]: 0.002%
% of A2aR+ NK cells [5]: 0.029%
% of A2aR+ NKT cells [5]: 0.058%
% of A2aR+ CD4+ T cells [6]: 0.099%
% of A2aR+ CD8+ T cells [6]: 0.007%
% of A2aR+ NK cells [6]: 0.42%
% of A2aR+ NKT cells [6]: 0.045%
% of A2aR+ CD4+ T cells [7]: 0.086%
% of A2aR+ CD8+ T cells [7]: 0.009%
% of A2aR+ NK cells [7]: 0.46%
% of A2aR+ NKT cells [7]: 0.22%

B1: Hu3F6-H3/Hu3F6-L5 (antibody, human IgG1, V domains shown)
VH: EVQLVQSGAEVKKPGASVKVSCKTSGFAFTSYWMNWVRQAPGQGLEWIGRIDPSDSEAHYHHKFWGRATLTVDTSSSTVYMELSSLRSEDTAVYYCLRSLYGKGDYWGHGTTVTVSS
VL: DVVMTQTPLSLSVTPGQPASISCRSSQSLVHRNGNTYLEWYLQKPGQSPQLLIYKVSNRFSGVPDRFSGSGSGTDFTLKISRVEAEDVGVYYCYQGSHVPLTFGGGTKVEIK
notes: Human IgG1 FES (L234F, L235E, P331S) and human Ig kappa constant domains; also called Hu3F6 VH3/VL5; Hu3F6-VH3/VL5
EC50 [8]: 0.57 nM
MFI [9]: 1900 MFI
IC50 of blocking activity, cAMP-Glo, 300 nM NECA, HEK293-hA2aR cells, supernatant [10]: 5.3 nM
% of A2aR+ CD4+ T cells [11]: 1.2%
% of A2aR+ CD8+ T cells [11]: 0.11%
% of A2aR+ NK cells [11]: 2.07%
% of A2aR+ NKT cells [11]: 0.45%
% of A2aR+ CD4+ T cells [12]: 1.65%
% of A2aR+ CD8+ T cells [12]: 0.05%
% of A2aR+ NK cells [12]: 6.52%
% of A2aR+ NKT cells [12]: 1.06%
IC50 of blocking activity, cAMP-Glo, 1.25 uM NECA, HEK293-hA2aR cells, purified antibody [13]: 0.8 nM
IC50 of blocking activity, cAMP-Glo, 5 uM Adenosine, HEK293-hA2aR cells, purified antibody [13]: 0.6 nM

B2: Hu3F6-H5/Hu3F6-L3 (antibody, human IgG1, V domains shown)
VH: B1 VH with H61A, T74K
VL: B1 VL with T7S, S12P, P15L, L42Q, K44R, Q50R
notes: Human IgG1 FES (L234F, L235E, P331S) and human Ig kappa constant domains; also called Hu3F6 VH5/VL3
EC50 [8]: 0.5 nM
MFI [9]: 2090 MFI
IC50 of blocking activity, cAMP-Glo, 300 nM NECA, HEK293-hA2aR cells, supernatant [10]: 1.3 nM

B3: Hu3F6-H3/Hu3F6-L3 (antibody, human IgG1, V domains shown)
VH: B1 VH
VL: B1 VL with T7S, S12P, P15L, L42Q, K44R, Q50R
notes: Human IgG1 FES (L234F, L235E, P331S) and human Ig kappa constant domains; also called Hu3F6 VH3/VL3
EC50 [8]: 0.64 nM
MFI [9]: 1930 MFI
IC50 of blocking activity, cAMP-Glo, 300 nM NECA, HEK293-hA2aR cells, supernatant [10]: 2 nM

B4: Hu3F6-H5/Hu3F6-L5 (antibody, human IgG1, V domains shown)
VH: B1 VH with H61A, T74K
VL: B1 VL
notes: Human IgG1 FES (L234F, L235E, P331S) and human Ig kappa constant domains; also called Hu3F6 VH5/VL5; Hu3F6-VH5/VL5
EC50 [8]: 0.59 nM
MFI [9]: 1850 MFI
IC50 of blocking activity, cAMP-Glo, 300 nM NECA, HEK293-hA2aR cells, supernatant [10]: 0.9 nM
% of A2aR+ CD4+ T cells [11]: 10.6%
% of A2aR+ CD8+ T cells [11]: 0.41%
% of A2aR+ NK cells [11]: 2.92%
% of A2aR+ NKT cells [11]: 4.28%
% of A2aR+ CD4+ T cells [12]: 4.76%
% of A2aR+ CD8+ T cells [12]: 0.15%
% of A2aR+ NK cells [12]: 5.71%
% of A2aR+ NKT cells [12]: 4.14%
IC50 of blocking activity, cAMP-Glo, 1.25 uM NECA, HEK293-hA2aR cells, purified antibody [13]: 0.6 nM
IC50 of blocking activity, cAMP-Glo, 5 uM Adenosine, HEK293-hA2aR cells, purified antibody [13]: 0.8 nM

B5: Hu3F6-H3/Hu3F6-L4 (antibody, human IgG1, V domains shown)
VH: B1 VH
VL: B1 VL with V2I
notes: Human IgG1 FES (L234F, L235E, P331S) and human Ig kappa constant domains; also called Hu3F6 VH3/VL4
EC50 [8]: 0.68 nM
MFI [9]: 1840 MFI
IC50 of blocking activity, cAMP-Glo, 300 nM NECA, HEK293-hA2aR cells, supernatant [10]: 19.5 nM
